The values below are quoted from earlier work in PMC9623233 (Clinical Cancer Research, 2022).

For the data set the following is noted: cited from earlier work.

Read-outs that look alike come from different tables or passages of the source.

On to “mirvetuximab soravtansine: α-FR–targeted antibody–drug conjugate with maytansine payload”, for which the Pneumonitis by setting is: (combined with bevacizumab) 9%; (single agent) 2.9%.
